Assay results taken from PMC11830286, “Protein identification using Cryo-EM and artificial intelligence guides improved sample purification” (Journal of Structural Biology: X, 2025).

Biological target: the molecule itself
Test: cryo-EM structure; single particle analysis of the SEC peak of the nanoparticle preparation purified without glycine or arginine; octahedral symmetry enforced, 2.51 Å; about 0.3 mg/mL, buffer with DDM

B1: dihydrolipoamide succinyltransferase (DLST) (enzyme, E. coli BL21 (DE3), UniProt P0AFG6 1-405, looked up)
chain: MSSVDILVPDLPESVADATVATWHKKPGDAVVRDEVLVEIETDKVVLEVPASADGILDAVLEDEGTTVTSRQILGRLREGNSAGKETSAKSEEKASTPAQRQQASLEEQNNDALSPAIRRLLAEHNLDASAIKGTGVGGRLTREDVEKHLAKAPAKESAPAAAAPAAQPALAARSEKRVPMTRLRKRVAERLLEAKNSTAMLTTFNEVNMKPIMDLRKQYGEAFEKRHGIRLGFMSFYVKAVVEALKRYPEVNASIDGDDVVYHNYFDVSMAVSTPRGLVTPVLRDVDTLGMADIEKKIKELAVKGRDGKLTVEDLTGGNFTITNGGVFGSLMSTPIINPPQSAILGMHAIKDRPMAVNGQVEILPMMYLALSYDHRLIDGRESVGFLVTIKELLEDPTRLLLDV
notes: dihydrolipoamide succinyltransferase (DLST) of E. coli BL21(DE3), UniProt A0A140NDX4; host protein, no construct; the first 170 residues were unresolved in the cryo-EM map and only the catalytic domain was modelled; also called dihydrolipoyllysine-residue succinyltransferase; contaminant nanoparticle; source: endogenous, E. coli BL21(DE3) expression host; co-purified as a contaminant with …
- stoichiometry N: 24
